The results in this text go back to patent publication US20140044730A1 (Regeneron, published 2014).

Test [1] addresses T1, human PCSK9 with a C-terminal myc-myc-hexahistidine tag (human, UniProt Q8NBP7 31-692, limits assumed).
T1 construct: also called hPCSK9-mmH; hPCSK9-mmh; not shown: C-terminal myc-myc-hexahistidine tag
Briefly: SPR 25C pH 7.2, mAb captured.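 Note: biacore SPR, antibodies captured on anti-human Fc CM4 chip with PCSK9 flowed as analyte, rate constants from a one-to-one kinetic fit, KD and half-life derived from them.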

For test [2], the target named is T1, human PCSK9 with a C-terminal …. In words: SPR 25C, mAb captured.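 Note: biacore CM4 surface bearing anti-human Fc antibody capturing the mAbs, PCSK9 binding and release rates fitted with a one-to-one model, KD and half-life derived from those rates.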
The target is the same in test [3]. In words: SPR 25C pH 5.75, mAb captured.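 Note: biacore surface with anti-human Fc antibody capturing the antibodies, PCSK9 as analyte, one-to-one kinetic fit, KD as kd over ka, half-life derived from kd.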
Description: A Biacore CM4 sensor chip was derivatized with a monoclonal mouse anti-human Fc antibody to capture human antibodies. The histidine substitution variant anti-PCSK9 antibodies were captured onto the anti-human Fc sensor surface from culture medium after transient expression in Chinese hamster ovary (CHO) cells. […] Kinetic association (kₐ) and dissociation (kd) rate constants were determined by processing and fitting the data to a 1:1 binding model using Scrubber 2.0 curve fitting software. Binding dissociation equilibrium constants (KD) and dissociative half-lives (t_{1/2}) were calculated from the kinetic rate constants as: KD (M)=kd/kₐ; and t_{1/2} (min)=(In2/(60*kd).

In general, Kd refers to the equilibrium constant for the complex coming apart. A higher Kd goes with weaker binding. For orientation: t½ means how long it takes for the measured level to halve. A high value points to slow loss.

B1: VH-A97 (antibody, V domains shown)
VH: EMQLVESGGGLVQPGGSLRLSCAASGFTFSSHWMKWVRQAPGKGLEWVANINQDGSEKYYVDSVKGRFTISRDNAKNSLFLQMNSLRAEDTAVYYCHRDIVLMVYDMDYYYYGMDVWGQGTTVTVSS
VL: not shown
notes: His variant of 300N; label printed without the final H
B1: the binding result in test [1] is “no binding”.

B2: VK-S32H (antibody, V domains shown)
VH: EMQLVESGGGLVQPGGSLRLSCAASGFTFSSHWMKWVRQAPGKGLEWVANINQDGSEKYYVDSVKGRFTISRDNAKNSLFLQMNSLRAEDTAVYYCARDIVLMVYDMDYYYYGMDVWGQGTTVTVSS
VL: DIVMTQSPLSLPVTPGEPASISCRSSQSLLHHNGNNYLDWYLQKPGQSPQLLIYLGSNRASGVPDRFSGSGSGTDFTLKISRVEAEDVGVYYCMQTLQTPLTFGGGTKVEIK
notes: His variant of 300N
In the case of B2, the binding result in test [1] was “no binding”.

B3: VH-I51H (antibody, V domains shown)
VH: EMQLVESGGGLVQPGGSLRLSCAASGFTFSSHWMKWVRQAPGKGLEWVANHNQDGSEKYYVDSVKGRFTISRDNAKNSLFLQMNSLRAEDTAVYYCARDIVLMVYDMDYYYYGMDVWGQGTTVTVSS
VL: not shown
notes: His variant of 300N
As to B3, in test [1], the Kd came out at 0.828 nM and the t½ turned out to be 50 min. Further, in test [2], the “KD ratio pH 5.75/pH 7.2” value amounted to 1.24 and the “t½ ratio pH 5.75/pH 7.2” value was 0.34. Further, in test [3], binding was characterised by a dissociation constant (Kd) of 1.03 nM and the t½ was 17 min.

B4: VH-E57H (antibody, V domains shown)
VH: EMQLVESGGGLVQPGGSLRLSCAASGFTFSSHWMKWVRQAPGKGLEWVANINQDGSHKYYVDSVKGRFTISRDNAKNSLFLQMNSLRAEDTAVYYCARDIVLMVYDMDYYYYGMDVWGQGTTVTVSS
VL: not shown
notes: His variant of 300N
As to B4, in test [1], the affinity, expressed as Kd, was 1.2 nM and the t½ was found to be 30 min. Also, in test [2], the “KD ratio pH 5.75/pH 7.2” value was found to be 1.03 and the “t½ ratio pH 5.75/pH 7.2” value worked out at 0.26. Also, in test [3], the Kd is 1.23 nM and the t½ is 8 min.

B5: VH-D115H (antibody, V domains shown)
VH: EMQLVESGGGLVQPGGSLRLSCAASGFTFSSHWMKWVRQAPGKGLEWVANINQDGSEKYYVDSVKGRFTISRDNAKNSLFLQMNSLRAEDTAVYYCARDIVLMVYDMDYYYYGMHVWGQGTTVTVSS
VL: not shown
notes: His variant of 300N
As for B5, in test [1], the Kd was found to be 3.91 nM and the t½ was found to be 26 min. In test [2], the “KD ratio pH 5.75/pH 7.2” value was 4.62 and the “t½ ratio pH 5.75/pH 7.2” value was 0.49. In addition, in test [3], the affinity, expressed as Kd, was 18.1 nM and the t½ was 13 min.

B6: VH-G55H (antibody, V domains shown)
VH: EMQLVESGGGLVQPGGSLRLSCAASGFTFSSHWMKWVRQAPGKGLEWVANINQDHSEKYYVDSVKGRFTISRDNAKNSLFLQMNSLRAEDTAVYYCARDIVLMVYDMDYYYYGMDVWGQGTTVTVSS
VL: not shown
notes: His variant of 300N
In test [1], B6 came in with a Kd of 0.921 nM and a t½ of 53 min. In test [2], the “KD ratio pH 5.75/pH 7.2” value came out at 1.13 and the “t½ ratio pH 5.75/pH 7.2” value came to 0.28. In test [3], this molecule showed a Kd of 1.04 nM and a t½ of 15 min.

B7: VH-Q53H (antibody, V domains shown)
VH: EMQLVESGGGLVQPGGSLRLSCAASGFTFSSHWMKWVRQAPGKGLEWVANINHDGSEKYYVDSVKGRFTISRDNAKNSLFLQMNSLRAEDTAVYYCARDIVLMVYDMDYYYYGMDVWGQGTTVTVSS
VL: not shown
notes: His variant of 300N
In test [1], B7 returned a Kd of 1.22 nM and a t½ of 32 min. In addition, in test [2], the “KD ratio pH 5.75/pH 7.2” value came to 1.29 and the “t½ ratio pH 5.75/pH 7.2” value came out at 0.19. In test [3], binding was characterised by a dissociation constant (Kd) of 1.57 nM and the t½ was determined as 6 min.

B8: VH-F27H (antibody, V domains shown)
VH: EMQLVESGGGLVQPGGSLRLSCAASGHTFSSHWMKWVRQAPGKGLEWVANINQDGSEKYYVDSVKGRFTISRDNAKNSLFLQMNSLRAEDTAVYYCARDIVLMVYDMDYYYYGMDVWGQGTTVTVSS
VL: not shown
notes: His variant of 300N
Turning to B8, in test [1], the Kd turned out to be 1.21 nM and the t½ came out at 42 min. Also, in test [2], the “KD ratio pH 5.75/pH 7.2” value amounted to 0.87 and the “t½ ratio pH 5.75/pH 7.2” value turned out to be 0.29. In test [3], binding was characterised by a dissociation constant (Kd) of 1.05 nM and the t½ amounted to 12 min.

B9: VH-D54H (antibody, V domains shown)
VH: EMQLVESGGGLVQPGGSLRLSCAASGFTFSSHWMKWVRQAPGKGLEWVANINQHGSEKYYVDSVKGRFTISRDNAKNSLFLQMNSLRAEDTAVYYCARDIVLMVYDMDYYYYGMDVWGQGTTVTVSS
VL: not shown
notes: His variant of 300N
In test [1], B9 displayed a Kd of 0.964 nM and a t½ of 40 min. Moreover, in test [2], the “KD ratio pH 5.75/pH 7.2” value worked out at 0.79 and the “t½ ratio pH 5.75/pH 7.2” value was determined as 0.33. In test [3], this molecule showed a Kd of 0.76 nM and a t½ of 13 min.

B10: VH-R98H (antibody, V domains shown)
VH: EMQLVESGGGLVQPGGSLRLSCAASGFTFSSHWMKWVRQAPGKGLEWVANINQDGSEKYYVDSVKGRFTISRDNAKNSLFLQMNSLRAEDTAVYYCAHDIVLMVYDMDYYYYGMDVWGQGTTVTVSS
VL: not shown
notes: His variant of 300N
In test [1], B10 came in with a Kd of 4.29 nM and a t½ of 23 min. In test [2], the “KD ratio pH 5.75/pH 7.2” value is 1.75 and the “t½ ratio pH 5.75/pH 7.2” value was 0.28. In test [3], this molecule displayed a Kd of 7.52 nM and a t½ of 6 min.

B11: VH-G26H (antibody, V domains shown)
VH: EMQLVESGGGLVQPGGSLRLSCAASHFTFSSHWMKWVRQAPGKGLEWVANINQDGSEKYYVDSVKGRFTISRDNAKNSLFLQMNSLRAEDTAVYYCARDIVLMVYDMDYYYYGMDVWGQGTTVTVSS
VL: not shown
notes: His variant of 300N
As to B11, in test [1], the Kd was determined as 0.985 nM and the t½ was determined as 47 min. For the same molecule, in test [2], the “KD ratio pH 5.75/pH 7.2” value amounted to 0.97 and the “t½ ratio pH 5.75/pH 7.2” value amounted to 0.26. In test [3], this molecule had a Kd of 0.956 nM and a t½ of 12 min.

B12: VH-K58H (antibody, V domains shown)
VH: EMQLVESGGGLVQPGGSLRLSCAASGFTFSSHWMKWVRQAPGKGLEWVANINQDGSEHYYVDSVKGRFTISRDNAKNSLFLQMNSLRAEDTAVYYCARDIVLMVYDMDYYYYGMDVWGQGTTVTVSS
VL: not shown
notes: His variant of 300N
In test [1], B12 had a Kd of 1.39 nM and a t½ of 32 min. Also, in test [2], the “KD ratio pH 5.75/pH 7.2” value is 0.92 and the “t½ ratio pH 5.75/pH 7.2” value stood at 0.26. In test [3], binding was put at a Kd of 1.28 nM and the t½ came to 8 min.

B13: VH-L102H (antibody, V domains shown)
VH: EMQLVESGGGLVQPGGSLRLSCAASGFTFSSHWMKWVRQAPGKGLEWVANINQDGSEKYYVDSVKGRFTISRDNAKNSLFLQMNSLRAEDTAVYYCARDIVHMVYDMDYYYYGMDVWGQGTTVTVSS
VL: not shown
notes: His variant of 300N
In test [1], B13 gave a Kd of 4.89 nM and a t½ of 23 min. In addition, in test [2], the “KD ratio pH 5.75/pH 7.2” value amounted to 3.66 and the “t½ ratio pH 5.75/pH 7.2” value was 0.31. In test [3], this molecule displayed a dissociation constant Kd of 17.9 nM and a t½ of 7 min.

B14: VH-D99H (antibody, V domains shown)
VH: EMQLVESGGGLVQPGGSLRLSCAASGFTFSSHWMKWVRQAPGKGLEWVANINQDGSEKYYVDSVKGRFTISRDNAKNSLFLQMNSLRAEDTAVYYCARHIVLMVYDMDYYYYGMDVWGQGTTVTVSS
VL: not shown
notes: His variant of 300N
In test [1], B14 gave a Kd of 46.2 nM and a t½ of 9 min. Moreover, in test [2], the “KD ratio pH 5.75/pH 7.2” value amounted to 0.14 and the “t½ ratio pH 5.75/pH 7.2” value was 0.73. In test [3], this molecule showed a dissociation constant (Kd) of 6.32 nM and a t½ of 7 min.

B15: VH-G113H (antibody, V domains shown)
VH: EMQLVESGGGLVQPGGSLRLSCAASGFTFSSHWMKWVRQAPGKGLEWVANINQDGSEKYYVDSVKGRFTISRDNAKNSLFLQMNSLRAEDTAVYYCARDIVLMVYDMDYYYYHMDVWGQGTTVTVSS
VL: not shown
notes: His variant of 300N
For the molecule B15, the binding result in test [1] is given as “no binding”.

B16: VH-I100H (antibody, V domains shown)
VH: EMQLVESGGGLVQPGGSLRLSCAASGFTFSSHWMKWVRQAPGKGLEWVANINQDGSEKYYVDSVKGRFTISRDNAKNSLFLQMNSLRAEDTAVYYCARDHVLMVYDMDYYYYGMDVWGQGTTVTVSS
VL: not shown
notes: His variant of 300N
In test [1], B16 came in with a Kd of 6.77 nM and a t½ of 18 min. In test [2], the “KD ratio pH 5.75/pH 7.2” value came to 3.56 and the “t½ ratio pH 5.75/pH 7.2” value was 0.15. In test [3], the Kd was found to be 24.1 nM and the t½ stood at 3 min.

B17: VH-M103H (antibody, V domains shown)
VH: EMQLVESGGGLVQPGGSLRLSCAASGFTFSSHWMKWVRQAPGKGLEWVANINQDGSEKYYVDSVKGRFTISRDNAKNSLFLQMNSLRAEDTAVYYCARDIVLHVYDMDYYYYGMDVWGQGTTVTVSS
VL: not shown
notes: His variant of 300N
In test [1], B17 displayed a Kd of 3.3 nM and a t½ of 27 min. In test [2], the “KD ratio pH 5.75/pH 7.2” value amounted to 1.68 and the “t½ ratio pH 5.75/pH 7.2” value was determined as 0.21. In test [3], the Kd was found to be 5.56 nM and the t½ was determined as 6 min.

B18: VH-N52H (antibody, V domains shown)
VH: EMQLVESGGGLVQPGGSLRLSCAASGFTFSSHWMKWVRQAPGKGLEWVANIHQDGSEKYYVDSVKGRFTISRDNAKNSLFLQMNSLRAEDTAVYYCARDIVLMVYDMDYYYYGMDVWGQGTTVTVSS
VL: not shown
notes: His variant of 300N
As for B18, in test [1], the Kd was 2.35 nM and the t½ amounted to 21 min. In test [2], the “KD ratio pH 5.75/pH 7.2” value turned out to be 1.84 and the “t½ ratio pH 5.75/pH 7.2” value came to 0.16. In test [3], this molecule yielded a Kd of 4.33 nM and a t½ of 3 min.

B19: VH-F29H (antibody, V domains shown)
VH: EMQLVESGGGLVQPGGSLRLSCAASGFTHSSHWMKWVRQAPGKGLEWVANINQDGSEKYYVDSVKGRFTISRDNAKNSLFLQMNSLRAEDTAVYYCARDIVLMVYDMDYYYYGMDVWGQGTTVTVSS
VL: not shown
notes: His variant of 300N
In test [1], B19 registered a Kd of 1.06 nM and a t½ of 46 min. For the same molecule, in test [2], the “KD ratio pH 5.75/pH 7.2” value was found to be 1.8 and the “t½ ratio pH 5.75/pH 7.2” value stood at 0.22. In test [3], this molecule returned a Kd of 1.91 nM and a t½ of 10 min.

B20: VK-T96H (antibody, V domains shown)
VH: EMQLVESGGGLVQPGGSLRLSCAASGFTFSSHWMKWVRQAPGKGLEWVANINQDGSEKYYVDSVKGRFTISRDNAKNSLFLQMNSLRAEDTAVYYCARDIVLMVYDMDYYYYGMDVWGQGTTVTVSS
VL: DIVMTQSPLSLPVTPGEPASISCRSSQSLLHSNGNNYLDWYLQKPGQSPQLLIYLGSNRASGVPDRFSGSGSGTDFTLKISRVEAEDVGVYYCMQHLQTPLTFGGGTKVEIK
notes: His variant of 300N
Take B20: the binding result in test [1] was “no binding”.
